Source: patent US20070179086A1 (Amgen, published 2007)
Changes are numbered by the printed parent chain.

B1: anti-TR-2 antibody E (antibody, V domains shown)
VH: QVQLVESGGGLVKPGGSLRLSCAASGFTFSDYYMNWIRQAPGKGLEWVSHISSSGSILDYADSVKGRFTISRDNAKNSLYLQMNSLRVEDTAVYYCARDGAAAGTDAFDLWGQGTMVTVSS
VL: DIQMTQSPSSLSASVGDRVTITCRSSQSISNYINWYQQRPGKAPNLLIHDVSSFQSAVPSRFSRSGSGTVFTLTISSLQPEDFATYFCQQTYITPFTFGPGTKVDIK
notes: also called Ab E
B2: anti-TR-2 antibody O (antibody, V domains shown)
VH: QVQLQESGPGLVKPSQTLSLTCTVSGGSISSGDYFWSWIRQLPGKGLECIGHIHNSGTTYYNPSLKSRVTISVDTSKKQFSLRLSSVTAADTAVYYCARDRGGDYYYGMDVWGQGTTVTVSS
VL: EIVLTQSPGTLSLSPGERATLSCRASQGISRSYLAWYQQKPGQAPSLLIYGASSRATGIPDRFSGSGSGTDFTLTISRLEPEDFAVYYCQQFGSSPWTFGQGTKVEIK
notes: also called Ab O
B3: anti-TR-2 antibody F (antibody, V domains shown)
VH: QVQLVESGGGVVQPGRSLRLSCAASGFTFSYYGIHWVRQAPGKGLEWVAVIWYDGSNKYYADSVKGRFTISRDNSKNTLYLQMNSLRAEDTAVYYCARGRYSSSSWWYFDLWGRGTLVTVSS
VL: DIQMTQSPSSLSASVGDRVTITCRASQGISNYLAWYQQKPGKVPKLLIYAASTLQSGVPSRFSGSGSGTDFTLTISSLQPEDVATYYCQKYNSAPLTFGGGTKVEIK
notes: also called Ab F
B4: anti-TR-2 antibody G (antibody, V domains shown)
VH: QVQAEQSGPGLVKPSETLSLTCTVSGGSISNYYWSWIRQPPGKGLEWIGYIYYSGSTKYNPSLKSRVTISVDTSKNQFSLKLTSVTTADTAVYYCARDSPRGFSGYEAFDSWGQGTLVTVSS
VL: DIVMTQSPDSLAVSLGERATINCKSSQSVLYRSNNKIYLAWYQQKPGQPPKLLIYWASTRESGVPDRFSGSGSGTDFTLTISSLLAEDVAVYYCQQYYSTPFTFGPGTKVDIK
notes: also called Ab G
B5: anti-TR-2 antibody H (antibody, V domains shown)
VH: QVQLQESGPGLVKPSQTLSLTCTVSGGSISSDNYYWSWIRQHPGKGLEWIGYIYYSGSTYYNPSLKSRVTISVDTSKNQFSLKLSSVTAADTAVYYCARGVNWNFLFDIWGQGTMVTVSS
VL: not shown
notes: also called Ab H
B6: anti-TR-2 antibody L (antibody, V domains shown)
VH: QVQLQQWGARLLKPSETLSLTCAVYGGSFSGYYWSWIRQPPGKGLEWIGEINHSGSTNYNPSLKSRVTISVDTSKNQFSLKLRSVTAADTAVYYCARGGSSGYWYFDLWGRGTLVTVSS
VL: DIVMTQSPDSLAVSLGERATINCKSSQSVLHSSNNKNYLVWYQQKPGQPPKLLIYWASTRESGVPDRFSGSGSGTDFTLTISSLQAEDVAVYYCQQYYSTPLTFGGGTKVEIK
notes: also called Ab L
B7: anti-TR-2 antibody D (antibody, V domains shown)
VH: QVQLQESGPGLVKPSQTLSLTCTVSGGSISSGGHYWSWIRQHPGKGLEWIGYIYYSGSAYYNPSLKSRVTISVDTSKNQFSLKLSSVTAADTAVYYCARDDSSGWGFDYWGQGILVTVSS
VL: DIQMTQSPSSLSASVGDRVTITCRASQGLRNDLGWFQQKPGKAPKRLIYAASSLQRGVPSRFSGSGSGTEFTLTISSLQPEDFTTYFCLQHNSFPWTFGQGTKVEIK
notes: Human antibody from XenoMouse; also called Ab D
B8: anti-TR-2 antibody C (antibody, V domains shown)
VH: B7 VH
VL: B7 VL
notes: Human antibody from XenoMouse; also called Ab C
B9: anti-TR-2 antibody B (antibody, V domains shown)
VH: B7 VH with A59T
VL: B7 VL with A43V, P44T, T84A, F87Y, N92Y
notes: Human antibody from XenoMouse; also called Ab B
B10: anti-TR-2 antibody M (antibody, V domains shown)
VH: EVQVVESGGGLVKPGGSLRLSCAASGFTFSSYSMNWVRQAPGKGLEWVSSISSSSSYIYYADSVKGRFTISRDNAKNSLYLQMNSLRAEDTAVYYCARGGSSWYGDWFDPWGQGTLVTVSS
VL: DIQMTQSPSSVSASVGDRVTITCRASQGISSWLVWYQQKPGKAPKLLIYAASSLQSGVPSRFSGSGSGTDFTLTISSLQPEDFATYYCQQANSFPFTFGGGTKVEIK
notes: also called Ab M
B11: anti-TR-2 antibody I (antibody, V domains shown)
VH: QVQLVESGGGLVKPGGSLRLSCAASGFTFSDYYMSWIRQAPGKGLEWVSYISRSGSTIYYADSVKGRFTISRDNAKNSLYLQMNSLRAEDTAVYYCARSLGGMDVWGQGTTVTVSS
VL: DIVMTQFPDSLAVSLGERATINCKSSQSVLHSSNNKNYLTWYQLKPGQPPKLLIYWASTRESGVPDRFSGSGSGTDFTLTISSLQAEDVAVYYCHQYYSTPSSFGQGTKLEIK
notes: also called Ab I
B12: anti-TR-2 antibody A (antibody, V domains shown)
VH: QVQLVQSGAEVKKPGASVKVSCKASGYTFTSYDINWVRQATGQGLEWMGWMNPNSDNTGYAQKFQGRVTMTRNTSISTAYMELSSLRSEDTAVYYCARWNHYGSGSHFDYWGQGTLVTVSS
VL: DIQMTQSPSSLSASVGDRVTITCRASQSISIYLNWYQQKPGKAPKLLIYAASSLQSGVPLRFSGSGSGTDFTLTISSLQPEDIATYYCQQSYKTPLTFGGGTKVEIK
notes: also called Ab A
B13: anti-TR-2 antibody J (antibody, V domains shown)
VH: QVQLVESGGGVVQPGRSLRLSCAASGFTFNNYGMHWVRQAPGKGLEWVAVIWYDGSNKYYADSVKGRFTISRDNSKNTLYLQMNSLRAEDTAVYYCARDRTVYSNSSPFYYYYYGMDVWGQGTTVTVSS
VL: B12 VL with A25T, I31T, Y49S, A51T, L60S, I83F, K93S
notes: also called Ab J
B14: anti-TR-2 antibody K (antibody, V domains shown)
VH: B13 VH with N30S, N31T, N105S
VL: B12 VL with I31S, Y49S, A51T, L54F, L60S, I83F, T85A, K93S
notes: also called Ab K
B15: anti-TR-2 antibody N (antibody, V domains shown)
VH: QLVESGGGVVQPGRSLRLSCAASGFTFSSYGMHWVRQAPGKGLEWVAVIWYDGRNKYYADSVKGRFTISRDNSKNTLYLQMNSLRAEDTAVYYCAREVGYCTNGVCSYYYYGMDVWGQGTTVTVSS
VL: B3 VL with Y36F, V43A, L46S, T53S, R61K, V83F, K90Q, A94Y
notes: also called Ab N
B16: anti-TR-2 antibody P (antibody, V domains shown)
VH: QVQLQESGPGLVKPSQTLSLTCSVSGGSISSGGYYWSWIRQHPGKGLEWIGYIYYSGSTYCNPSLKSRVTISVDTSKNQFSLKLSSVTAADTAVYYCARDNGSGSYDWFDPWGQGILVTVSS
VL: B10 VL with V34A, L46F, Y49F, A50V, L54F, F96R, G100Q
notes: Human antibody from XenoMouse; also called Ab P
B17: anti-TR-2 antibody Q (antibody, V domains shown)
VH: B16 VH with L4M, S23T, G33D, G46N, C61Y, I116T
VL: B10 VL with V34A, L46F, Y49F, A50V, F96R, G100Q
notes: Human antibody from XenoMouse; also called Ab Q

Target: T1, recombinant human TR-2 with a C-terminal hexahistidine tag (TR-2-His) (human, UniProt O14763 56-207)
T1 construct: also called soluble TR-2-His
Experiment: SPR Biacore 2000; antibody captured on anti-human antibody chip, 226 nM TR-2-His injected, 25 C, 1:1 model;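 also: goat anti-human capture surface amine-coupled on CM5 chip, HBS-P running buffer with BSA, responses normalized to captured antibody level, kinetics from global 1:1 fitting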
Method: (§1) The kinetics of the binding of anti-TR-2 antibodies A to Q to TR-2 was analyzed using a Biacore® 2000 instrument. High-density goat anti-human antibody surfaces were prepared on CM-5 Biacore® chips using routine amine coupling. Each purified anti-TR-2 antibody was diluted to approximately 1 μg/ml in HBS-P running buffer containing 100 μg/ml BSA. Each anti-TR-2 antibody was captured on a separate surface using a two minute contact time and a five minute wash to stabilize the anti-TR-2 antibody surface on the chip.
(§2) Additionally, the data for TR-2 binding to anti-TR-2 antibody were normalized for the amount of monoclonal antibody captured on each surface. Each data set was fit globally to a 1:1 interaction model to determine binding kinetics.

Binder	Kd	koff	kon
B1	0.0021 µM	0.0018 s⁻¹	870000 M⁻¹ s⁻¹
B2	0.019 µM	0.0084 s⁻¹	440000 M⁻¹ s⁻¹
B3	0.013 µM	0.005 s⁻¹	380000 M⁻¹ s⁻¹
B4	0.031 µM	0.019 s⁻¹	600000 M⁻¹ s⁻¹
B5	0.0098 µM	0.0084 s⁻¹	860000 M⁻¹ s⁻¹
B6	0.018 µM	0.011 s⁻¹	600000 M⁻¹ s⁻¹
B7	0.0045 µM	0.0027 s⁻¹	620000 M⁻¹ s⁻¹
B8	0.0039 µM	0.0026 s⁻¹	680000 M⁻¹ s⁻¹
B9	0.019 µM	0.011 s⁻¹	570000 M⁻¹ s⁻¹
B10	0.037 µM	0.012 s⁻¹	340000 M⁻¹ s⁻¹
B11	0.0044 µM	0.0013 s⁻¹	290000 M⁻¹ s⁻¹
B12	0.0069 µM	0.0037 s⁻¹	530000 M⁻¹ s⁻¹
B13	0.012 µM	0.0071 s⁻¹	570000 M⁻¹ s⁻¹
B14	0.018 µM	0.012 s⁻¹	680000 M⁻¹ s⁻¹

Target: T1, recombinant human TR-2 with a …
Experiment: SPR Biacore 2000; antibody captured on anti-human antibody chip, 226 nM TR-2-His injected, 25 C, 1:1 model; data heterogeneous, fit poorly
Method: as §1, §2

Binder	Kd	koff	kon
B15	0.068 µM	0.055 s⁻¹	810000 M⁻¹ s⁻¹
B16	0.033 µM	0.027 s⁻¹	810000 M⁻¹ s⁻¹
B17	0.013 µM	0.016 s⁻¹	1.2e+06 M⁻¹ s⁻¹
